Here are results for 53 substances from patent US20170037111A1, “Novel peptides and combination of peptides for use in immunotherapy against ovarian cancer and other cancers” (immatics biotechnologies GmbH, priority 2015, published 2017).

This test concerns the target HLA-A*02:01 (Homo sapiens, UniProt P04439, D140Y/D185E/D98H/E176V/E277Q/G131W/G231S/I119V/I121R/I166T/I218V/L300P/L318F/N151K/N90K/P208A/P217A/Q86G/Q94H/R138H/R169H/T345S). The experiment in a line: MHC binding assay (UV-ligand exchange, β2m ELISA, peptide exchange yield). The settings on record: MHC class I binding score; binding to HLA-A*02:01 ranged by peptide exchange yield (UV-ligand exchange, β2m ELISA). The source says:
Candidate peptides for T cell based therapies according to the present invention were further tested for their MHC binding capacity (affinity). The individual peptide-MHC complexes were produced by UV-ligand exchange, where a UV-sensitive peptide is cleaved upon UV-irradiation, and exchanged with the peptide of interest as analyzed. Only peptide candidates that can effectively bind and stabilize the peptide-receptive MHC molecules prevent dissociation of the MHC complexes. To determine the yield of the exchange reaction, an ELISA was performed based on the detection of the light chain (β2m) of stabilized MHC complexes. The assay was performed as generally described in Rodenko et al. (Rodenko et al., 2006).
96 well MAXISorp plates (NUNC) were coated over night with 2 ug/ml streptavidin in PBS at room temperature, washed 4× and blocked for 1h at 37° C. in 2% BSA containing blocking buffer. […] Peptide-MHC monomers of the UV-exchange reaction were diluted 100 fold in blocking buffer. Samples were incubated for 1h at 37° C., washed four times, incubated with 2 ug/ml HRP conjugated anti-β2m for 1h at 37° C., washed again and detected with TMB solution that is stopped with […]. Absorption was measured at 450 nm. Candidate peptides that show a high exchange yield (preferably higher than 50%, most preferred higher than 75%) are generally preferred for a generation and production of antibodies or fragments thereof, and/or T cell receptors or fragments thereof, as they show sufficient avidity to the MHC molecules and prevent dissociation of the MHC complexes.
Consider “87 (ALPEAPAPLLPHIT; listed as Homo sapiens) [compound 87]”, for which the Peptide exchange result is “″++″ (≧20% = ++)”.

As for “88 (FLLVGDLMAV; listed as Homo sapiens) [compound 88]”, the Peptide exchange result is listed as “″+++″ (≧50% = +++)”.

As to “89 (YILPTETIYV; listed as Homo sapiens) [compound 89]”, the Peptide exchange result was “″++++″ (≧75% = ++++)”.

In the case of “90 (TLLQIIETV; listed as Homo sapiens) [compound 90]”, the Peptide exchange result is “″+++″ (≧50% = +++)”.

For “91 (IMQDFPAEIFL; listed as Homo sapiens) [compound 91]”, the Peptide exchange entry was “″++++″ (≧75% = ++++)”.

In the case of “92 (YLIPFTGIVGL; listed as Homo sapiens) [compound 92]”, the Peptide exchange entry is “″++″ (≧20% = ++)”.

In the case of “93 (LLQAIKLYL; listed as Homo sapiens) [compound 93]”, the Peptide exchange entry is on record as “″++″ (≧20% = ++)”.

With “94 (YLIDIKTIAI; listed as Homo sapiens) [compound 94]”, the Peptide exchange result is recorded as “″++″ (≧20% = ++)”.

As to “95 (SVIPQIQKV; listed as Homo sapiens) [compound 95]”, the Peptide exchange entry was “″+++″ (≧50% = +++)”.

In the case of “96 (YIFTDNPAAV; listed as Homo sapiens) [compound 96]”, the Peptide exchange entry was “″+++″ (≧50% = +++)”.

Turning to “97 (SLINGSFLV; listed as Homo sapiens) [compound 97]”, the Peptide exchange entry is listed as “″+++″ (≧50% = +++)”.

“98 (LIIDQADIYL; listed as Homo sapiens) [compound 98]”: the Peptide exchange entry is on record as “″+++″ (≧50% = +++)”.

Regarding “99 (ALVSKGLATV; listed as Homo sapiens) [compound 99]”, the Peptide exchange entry was “″++″ (≧20% = ++)”.

Consider “100 (YLLSTNAQL; listed as Homo sapiens) [compound 100]”, for which the Peptide exchange entry is recorded as “″++++″ (≧75% = ++++)”.

Turning to “101 (ILVGGGALATV; listed as Homo sapiens) [compound 101]”, the Peptide exchange result was “″+++″ (≧50% = +++)”.

As for “102 (YLFESEGLVL; listed as Homo sapiens) [compound 102]”, the Peptide exchange entry is “″+++″ (≧50% = +++)”.

On to “103 (TLAEEVVAL; listed as Homo sapiens) [compound 103]”, for which the Peptide exchange entry is given as “″+++″ (≧50% = +++)”.

Regarding “104 (STMEQNFLL; listed as Homo sapiens) [compound 104]”, the Peptide exchange result was “″++++″ (≧75% = ++++)”.

On to “106 (LLYDAVHIVSV; listed as Homo sapiens) [compound 106]”, for which the Peptide exchange result is reported as “″+++″ (≧50% = +++)”.

Turning to “107 (FLQPVDDTQHL; listed as Homo sapiens) [compound 107]”, the Peptide exchange entry was “″+++″ (≧50% = +++)”.

Regarding “109 (IILSILEQA; listed as Homo sapiens) [compound 109]”, the Peptide exchange entry is listed as “″++++″ (≧75% = ++++)”.

Regarding “110 (FLSQVDFEL; listed as Homo sapiens) [compound 110]”, the Peptide exchange entry was “″+++″ (≧50% = +++)”.

As for “111 (YVWGFYPAEV; listed as Homo sapiens) [compound 111]”, the Peptide exchange result is on record as “″+++″ (≧50% = +++)”.

In the case of “114 (SLVGEPILQNV; listed as Homo sapiens) [compound 114]”, the Peptide exchange result is given as “″++″ (≧20% = ++)”.

Take “115 (AIAGAGILYGV; listed as Homo sapiens) [compound 115]”: the Peptide exchange entry is “″++″ (≧20% = ++)”.

As to “116 (YHIDEEVGF; listed as Homo sapiens) [compound 116]”, the Peptide exchange entry is “″+″ (≧10% = +)”.

Regarding “117 (ILPDGEDFLAV; listed as Homo sapiens) [compound 117]”, the Peptide exchange entry is “″+++″ (≧50% = +++)”.

For “119 (FLYIGDIVSL; listed as Homo sapiens) [compound 119]”, the Peptide exchange entry was “″++++″ (≧75% = ++++)”.

Turning to “120 (ALLGIPLTLV; listed as Homo sapiens) [compound 120]”, the Peptide exchange entry is on record as “″+++″ (≧50% = +++)”.

Regarding “121 (GVVDPRAISVL; listed as Homo sapiens) [compound 121]”, the Peptide exchange entry is listed as “″++″ (≧20% = ++)”.

Take “122 (FLLAEDDIYL; listed as Homo sapiens) [compound 122]”: the Peptide exchange result is given as “″+++″ (≧50% = +++)”.

Take “123 (NLWDLTDASVV; listed as Homo sapiens) [compound 123]”: the Peptide exchange entry is recorded as “″+++″ (≧50% = +++)”.

With “124 (ALYETELADA; listed as Homo sapiens) [compound 124]”, the Peptide exchange result is “″++″ (≧20% = ++)”.

On to “125 (VQIHQVAQV; listed as Homo sapiens) [compound 125]”, for which the Peptide exchange result is “″+++″ (≧50% = +++)”.

Turning to “126 (VLAYFLPEA; listed as Homo sapiens) [compound 126]”, the Peptide exchange result was “″++++″ (≧75% = ++++)”.

As to “127 (KIGDEPPKV; listed as Homo sapiens) [compound 127]”, the Peptide exchange entry is “″++″ (≧20% = ++)”.

On to “128 (YLFDDPLSAV; listed as Homo sapiens) [compound 128]”, for which the Peptide exchange result is “″++″ (≧20% = ++)”.

Turning to “129 (GLLDGGVDILL; listed as Homo sapiens) [compound 129]”, the Peptide exchange result is “″+++″ (≧50% = +++)”.

On to “130 (FLWNGEDSALL; listed as Homo sapiens) [compound 130]”, for which the Peptide exchange result is “″+++″ (≧50% = +++)”.

Regarding “131 (FVPPVTVFPSL; listed as Homo sapiens) [compound 131]”, the Peptide exchange entry is listed as “″++″ (≧20% = ++)”.

For the substance “132 (LLVEQPPLAGV; listed as Homo sapiens) [compound 132]”, the Peptide exchange entry is “″+++″ (≧50% = +++)”.

For “133 (KVLSNIHTV; listed as Homo sapiens) [compound 133]”, the Peptide exchange entry is on record as “″++″ (≧20% = ++)”.

“134 (YLQELIFSV; listed as Homo sapiens) [compound 134]”: the Peptide exchange result was “″+++″ (≧50% = +++)”.

Consider “135 (ALSEVDFQL; listed as Homo sapiens) [compound 135]”, for which the Peptide exchange result was “″+++″ (≧50% = +++)”.

Turning to “136 (YLADPSNLFVV; listed as Homo sapiens) [compound 136]”, the Peptide exchange entry is given as “″+++″ (≧50% = +++)”.

On to “137 (TLVLTLPTV; listed as Homo sapiens) [compound 137]”, for which the Peptide exchange entry is “″++++″ (≧75% = ++++)”.

As for “138 (YQYPRAILSV; listed as Homo sapiens) [compound 138]”, the Peptide exchange result is given as “″+++″ (≧50% = +++)”.

With “139 (SVMEVNSGIYRV; listed as Homo sapiens) [compound 139]”, the Peptide exchange result is reported as “″+++″ (≧50% = +++)”.

“140 (YMDAPKAAL; listed as Homo sapiens) [compound 140]”: the Peptide exchange entry is “″++″ (≧20% = ++)”.

With “142 (FLFATPVFI; listed as Homo sapiens) [compound 142]”, the Peptide exchange result is “″+++″ (≧50% = +++)”.

In the case of “144 (YIMEPSIFNTL; listed as Homo sapiens) [compound 144]”, the Peptide exchange entry is listed as “″+++″ (≧50% = +++)”.

For the substance “145 (FLATSGTLAGI; listed as Homo sapiens) [compound 145]”, the Peptide exchange entry is reported as “″++″ (≧20% = ++)”.

As for “146 (SLATAGDGLIEL; listed as Homo sapiens) [compound 146]”, the Peptide exchange result is reported as “″++″ (≧20% = ++)”.
